Source: patent US20010016194A1 (published 2001)

B1: FLAG-HMK-IL-2Rβ chain containing only the proline rich C-terminal (CT+) (receptor)
chain: QPLSGEDDAYCTFPSRDDLLLFSPSLLGGPSPPSTAPGGSGAGEERMPPSLQERVPRDWDPQPLGPPTPGVPDLVDFQPPPELVLREAGEEVPDAGPREGVSFPWSRPPGQGEFRALNARLPLNTDAYLSLQELQGQDPTHLV
notes: How it was constructed is not described; also called FLAG-HMK-IL-2Rβ chain CT+ proteins; not shown: 17 amino acid FLAG-HMK tag
B2: FLAG-HMK-IL-2Rβ chain mutant lacking both acidic domain and proline rich C-terminal (A-CT-) (receptor)
chain: NCRNTGPWLKKVLKCNTPDPSKFFSQLSSEHGGDVQKWLSSPFPSSSFSPGGLAPEISPLEVLERDKVTQLLL
notes: How it was constructed is not described; also called FLAG-HMK-IL-2Rβ S+; not shown: 17 amino acid FLAG-HMK tag
B3: FLAG-HMK-IL-2Rβ chain cytoplasmic domain wild type fusion protein (receptor, not shown: small tags and cut ends)
chain: NCRNTGPWLKKVLKCNTPDPSKFFSQLSSEHGGDVQKWLSSPFPSSSFSPGGLAPEISPLEVLERDKVTQLLLQQDKVPEPASLSSNHSLTSCFTNQGYFFFHLPDALEIEACQVYFTYDPYSEEDPDEGVAGAPTGSSPQPLQPLSGEDDAYCTFPSRDDLLLFSPSLLGGPSPPSTAPGGSGAGEERMPPSLQERVPRDWDPQPLGPPTPGVPDLVDFQPPPELVLREAGEEVPDAGPREGVSFPWSRPPGQGEFRALNARLPLNTDAYLSLQELQGQDPTHLV
notes: Made in BL-21 pLysS bacteria, about 33 kDa; also called FLAG-HMK-IL-2Rβ chain wild type (WT); FLAG-HMK-IL-2Rβ-WT

Key:
[1] = biological target: T1, Raf-1 proteins present in human T-cell lysates (human, UniProt P04049 1-648); assay: anti-FLAG bead pull-down from T-cell lysate, anti-Raf-1 immunoblot
T1 construct: Endogenous protein within a cell lysate, so other lysate proteins were present; also called T-cell derived Raf-1 proteins; cellular Raf-1 serine/threonine kinase

[2] = biological target: T2, (His)6-Raf-1 protein (UniProt P04049 1-648, limits assumed); assay: totally cell-free pull-down on anti-FLAG beads, anti-Raf-1 immunoblot
T2 construct: Made in M15 bacteria and purified on Ni-NTA, or used as bacterial lysate; also called bacterially produced (His)6-Raf-1
Source text: Eluted proteins were separated on SDS-PAGE, transferred onto Immobilon membrane and blotted with anti-Raf-1 antibody.

[3] = biological target: T1, Raf-1 proteins present in human T-cell …; assay: anti-FLAG affinity column pull-down from 35S-labelled human T-cell lysate, anti-SP-63 immunoblot

Binder	binding result [1]	binding result [2]	binding result [3]
B1	no binding	–	–
B2	no binding	no binding	–
B3	–	–	binds
